# Columns and labels:
# [1] = target: MBL-associated serine protease 2 (MASP2), serum-derived (human (endogenous in normal human serum))
# [2] = target: C1 complex (C1qr2s2) (human) (UniProt P02745); test: ELISA; C1 complex at 50 µg/ml bound to human IgM-coated plate (37°C, 2 h); rLdISP1/rLdISP2 0-50 µM added, 37°C, 2 h; bound ISP detected with anti-ISP1 or anti-ISP2 antibody; Kd taken as the free ligand at half saturation
# [3] = target: C1 complex (C1qr2s2) (human) (UniProt P02745); test: ELISA; C1 complex at 100 µg/ml bound to human IgM-coated plate (37°C, 2 h); rLdISP1/rLdISP2 0-50 µM added, 37°C, 2 h; bound ISP detected with anti-ISP1 or anti-ISP2 antibody; Kd taken as the free ligand at half saturation
# [4] = target: serum-derived MBL-associated serine proteases (MASPs) (human (endogenous in normal human serum)); test: ELISA; normal human serum diluted 1:100 in veronal buffer saline bound to mannan-coated plate (37°C, 2 h), washed; rLdISP1/rLdISP2 0-50 µM added, 37°C, 2 h; bound ISP detected with anti-ISP1 or anti-ISP2 antibody
# [5] = target: serum-derived MBL-associated serine proteases (MASPs) (human (endogenous in normal human serum)); test: ELISA; normal human serum diluted 1:50 in veronal buffer saline bound to mannan-coated plate (37°C, 2 h), washed; rLdISP1/rLdISP2 0-50 µM added, 37°C, 2 h; bound ISP detected with anti-ISP1 or anti-ISP2 antibody
# [6] = target: C1 complex (C1qr2s2) (human) (UniProt P02745); test: ELISA; C1 complex at 100 µg/ml bound to human IgM-coated plate (37°C, 2 h); rLdISP1/rLdISP2 0-50 µM added, 37°C, 2 h; bound ISP detected with anti-ISP1 or anti-ISP2 antibody; Kd taken as the free ligand at half saturation; remark: listed apart in the source
# [7] = target: C1 complex (C1qr2s2) (human) (UniProt P02745); test: ELISA; C1 complex at 6.25 µg/ml bound to human IgM-coated plate (37°C, 2 h); rLdISP1/rLdISP2 0-50 µM added, 37°C, 2 h; bound ISP detected with anti-ISP1 or anti-ISP2 antibody; Kd taken as the free ligand at half saturation
# [8] = target: C1 complex (C1qr2s2) (human) (UniProt P02745); test: ELISA; C1 complex at 25 µg/ml bound to human IgM-coated plate (37°C, 2 h); rLdISP1/rLdISP2 0-50 µM added, 37°C, 2 h; bound ISP detected with anti-ISP1 or anti-ISP2 antibody; Kd taken as the free ligand at half saturation
# [9] = target: serum-derived MBL-associated serine proteases (MASPs) (human (endogenous in normal human serum)); test: ELISA; normal human serum diluted 1:10 in veronal buffer saline bound to mannan-coated plate (37°C, 2 h), washed; rLdISP1/rLdISP2 0-50 µM added, 37°C, 2 h; bound ISP detected with anti-ISP1 or anti-ISP2 antibody
# [10] = target: MBL-associated serine protease 2 (MASP2), serum-derived (human (endogenous in normal human serum)); remark: listed apart in the source
# [11] = target: MBL-associated serine protease 2 (MASP2), serum-derived (human (endogenous in normal human serum)); remark: listed apart in the source
# [12] = target: neutrophil elastase (NE) from human leukocytes (human) (UniProt P08246)
# [13] = target: MBL-associated serine protease 2 (MASP2), serum-derived (human (endogenous in normal human serum)); remark: listed apart in the source
# [14] = target: C1 complex (C1qr2s2) (human) (UniProt P02745); test: ELISA; C1 complex at 12.5 µg/ml bound to human IgM-coated plate (37°C, 2 h); rLdISP1/rLdISP2 0-50 µM added, 37°C, 2 h; bound ISP detected with anti-ISP1 or anti-ISP2 antibody; Kd taken as the free ligand at half saturation
# Chain of neutrophil elastase (NE) from human leukocytes (human) (P08246 30-267): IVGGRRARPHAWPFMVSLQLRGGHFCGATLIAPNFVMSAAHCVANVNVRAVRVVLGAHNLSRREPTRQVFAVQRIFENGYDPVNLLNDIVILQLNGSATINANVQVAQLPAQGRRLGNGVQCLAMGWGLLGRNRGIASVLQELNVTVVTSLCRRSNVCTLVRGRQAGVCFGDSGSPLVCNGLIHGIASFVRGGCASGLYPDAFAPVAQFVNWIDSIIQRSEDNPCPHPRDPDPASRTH
substance,measurement,setting,value
recombinant L. donovani inhibitor of serine peptidases 2 (natural protein),"C4b formation (C4 cleavage by serum-derived MASPs on mannan plate, sandwich ELISA), fold decrease against control at 10 and 50 µM rLdISP2 (~2.1, ~2.9-fold)",[1],2.9 fold
same,Ka,[2],500000 M⁻¹
same,Kd,[2],2000 nM
same,Ka,[3],760000 M⁻¹
same,Kd,[3],1300 nM
same,Ka,[4],330000 M⁻¹
same,Kd,[4],3000 nM
same,Ka,[5],520000 M⁻¹
same,Kd,[5],1900 nM
same,Kd,[6],1600 nM
same,Ka,[7],280000 M⁻¹
same,Kd,[7],3500 nM
same,Ka,[8],350000 M⁻¹
same,Kd,[8],3000 nM
same,Ka,[9],830000 M⁻¹
same,Kd,[9],1200 nM
same,"enzyme activity of serum-derived MASP2 (substrate Z-L-Lys-SBzl with DTNB), reduction against untreated serum at 5, 10 and 50 µM rLdISP2 (~30, ~44, ~60%)",[10],60%
same,"MAC (C5b-9) formation on promastigotes via the lectin pathway, fold decrease against active LPSS at 10 and 50 µM rLdISP2 (~1.5, ~2.3-fold)",[11],2.3 fold
same,"complement-mediated lysis of promastigotes via the lectin pathway, fold reduction at 10 and 50 µM rLdISP2 (~1.8, ~2.5-fold)",[11],2.5 fold
same,"C5aR expression (western blot) in macrophages treated with NE pre-incubated with 10 µM rLdISP2, fold increase against control",[12],2.5 fold
same,"enzyme activity of NE (50 nM; substrate N-methoxysuccinyl-Ala-Ala-Pro-Val-AMC), reduction at 0.1, 1 and 10 µM rLdISP2 (~49, ~60, ~82%)",[12],82%
same,"C3 convertase (C3c) formation by all complement pathways in human serum with promastigotes, fold reduction at 10 and 50 µM rLdISP2 (~1.5, ~2.5-fold)",[13],2.5 fold
same,"C3 convertase (C3c) formation by the lectin pathway (lectin pathway-specific serum), fold reduction at 10 and 50 µM rLdISP2 (~2, ~4-fold)",[13],4 fold
same,"C5 convertase (C5c) formation by all three pathways, fold reduction at 10 and 50 µM rLdISP2 (~1.5, ~2.9-fold)",[13],2.9 fold
same,"C5 convertase (C5c) formation by the lectin pathway, fold reduction at 10 and 50 µM rLdISP2 (~1.4, ~3.2-fold)",[13],3.2 fold
same,Ka,[14],310000 M⁻¹
same,Kd,[14],3200 nM
recombinant Leishmania donovani inhibitor of serine peptidases 1 (natural protein),Ka,[4],310000 M⁻¹
same,Kd,[4],3200 nM
same,Ka,[5],450000 M⁻¹
same,Kd,[5],2200 nM
same,Ka,[9],710000 M⁻¹
same,Kd,[9],1400 nM
same,"enzyme activity of NE (50 nM; substrate N-methoxysuccinyl-Ala-Ala-Pro-Val-AMC), inhibition at 10 µM rLdISP1",[12],27%

# Reference: article PMC5796892
